Results published in patent US10011659B2, “Compositions and methods for treating cancer resistant to a tyrosine kinase inhibitor (TKI)” (Yeda Research and Development Co. Ltd., priority 2014, dated 2018).
Changes are numbered by the printed parent chain. Entries after “also recorded” stand apart in the source; their conditions may differ.

Experiments:
PC9ER NSCLC cells = test: Tumorigenic growth in-vivo, xenograft; design: species or system CD1-nu/nu mice
Protocol: CD1/nude mice (Harlan Laboratories) were randomized in groups of ten mice and injected subcutaneously in the right flank with H1975 lung cancer cells (3×10^6 per mouse) or with PC9ER lung cancer cells (4×10^6 per mouse). PBS or mAbs were injected intraperitoneally once every three days at a total dose of 200 μg per mouse per injection starting 11 days following cells injection, until tumors reached the size of 1,500 mm^3. […] Few of the tumors were harvested from mice at the indicated time points and taken for further evaluation. Survival of the tumor bearing mice was recorded and depicted by Kaplan-Meier analysis.

PC9ER-AZDR cells [1] = test: MTT cell survival assay; format: cell-based, human; settings: 72 hours, increasing doses
Protocol: (§1) Cell cultures—The H1975 (ATCC; NCI-H1975_CRL-5908) lung cancer cell line (EGFR mutations: L858R and T790M, ATCC; Rockville, Md.), PC9 and erlotinib-resistant PC9ER lung cancer cells (de1746-750+T790M) (described in 16) were maintained in RPMI-1640 supplemented with 10% FCS (Life technology) and antibiotics. PC9ER cells resistant to AZD-9291, denoted as PC9ER-AZDR cells, were generated by incubating PC9ER cells with AZD-9291 for three months. The dose, initially provided at 0.5 nM, was increased every 4 days per 1.5 fold up to 2.5 μM. NL20 (ATCC; NL20_CRL-2503), an immortalized human bronchial epithelial cell line (ATCC, Rockville, Md.) was maintained in F12K medium as recommended by the ATCC. Co-cultures in a ratio of 1:1 of WI38 (ATCC; CCL-75) and PC9ER or H1975 cells were maintained in DME medium supplemented with sodium pyruvate and fetal calf serum (FCS 5%; Life Technology).
(§2) Cell growth and survival—Cell survival was assessed using the 3-(4,5-dimethylthiazol-2-yl)-2,5 diphenyl tetrazolium bromide (MTT) assay (Sigma Cat#M2003). Cells were plated on 96-wells plates (2,000 cells/well) in triplicates. The medium was changed the following day and cells were treated as indicated. Following 3-4 days of incubation, MTT reagent was added to the cells for one hour followed by dissolving of the formazan crystals in SDS-DMF solution. Absorbance was measured using a microplate reader, Biorad Model 680, at 570 nm.

[2] = tested on: EGFR phosphorylation in PC9ER-AZDR cells; test: Western blot (immunoblot) of EGFR phosphorylation; format: cell-based, human; settings: 1 μM, 6 hours
H1975 NSCLC cells = test: Tumorigenic growth in-vivo, xenograft; design: species or system CD1-nu/nu mice; settings: for tumor growth: mAbs intraperitoneally once every three days from day 11, total 200 μg per mouse per injection
Protocol: Tumorigenic growth in-vivo—The animal studies were approved by the Weizmann Institute's Review Board (IRB). CD1/nude mice (Harlan Laboratories) were randomized in groups of ten mice and injected subcutaneously in the right flank with H1975 lung cancer cells (3×10^6 per mouse) or with PC9ER lung cancer cells (4×10^6 per mouse). PBS or mAbs were injected intraperitoneally once every three days at a total dose of 200 μg per mouse per injection starting 11 days following cells injection, until tumors reached the size of 1,500 mm^3. In experiments evaluating the effect of the TKI AZD-9291, Vehicle (Vehicle formulation: HPMC 0.5% (sigma Cat#56340), Tween80 0.1% (Sigma Cat #P8074 in water), Erlotinib at a dose of 50 mg/kg per injection, or AZD9291 at a dose of 1 or 5 mg/kg per injection were injected daily intraperitoneally. In one experiment (FIG. 17), mice were treated daily with Erlotinib at a dose of 50 mg/kg per injection until tumors reached a size of 800 mm^3 and only then were treated as indicated. Tumor volume was evaluated twice a week and body weight was evaluated once a week. Mice were euthanized when tumor size reached 1,500 mm^3. Few of the tumors were harvested from mice at the indicated time points and taken for further evaluation. Survival of the tumor bearing mice was recorded and depicted by Kaplan-Meier analysis.

PC9ER-AZDR cells [3] = test: Tumorigenic growth in-vivo, xenograft; settings: erlotinib 50 mg/kg/d; AZD9291 1 and 5 mg/kg/d; 3×mAbs 0.2 mg/mouse/injection once every three days
Protocol: A derivative of PC9ER cells (erlotinib-resistant) was implanted in the flank of immune compromised mice. Vehicle, erlotinib (50 mg/kg/d), low-dose AZD9291 (L; 1 mg/kg/d) and high-dose AZD9291 (H; 5 mg/kg/d) were daily administrated by oral gavage, while the 3×mAbs (triple antibody combination; CTX, TRZ, 33; 0.2 mg/mouse/injection) were administrated once every three days by intraperitoneal injection. Data are means±SEM from 9 mice in each group.
Tumorigenic growth in-vivo—The animal studies were approved by the Weizmann Institute's Review Board (IRB). […] In experiments evaluating the effect of the TKI AZD-9291, Vehicle (Vehicle formulation: HPMC 0.5% (sigma Cat#56340), Tween80 0.1% (Sigma Cat #P8074 in water), Erlotinib at a dose of 50 mg/kg per injection, or AZD9291 at a dose of 1 or 5 mg/kg per injection were injected daily intraperitoneally. In one experiment (FIG. 17), mice were treated daily with Erlotinib at a dose of 50 mg/kg per injection until tumors reached a size of 800 mm^3 and only then were treated as indicated. Tumor volume was evaluated twice a week and body weight was evaluated once a week. Mice were euthanized when tumor size reached 1,500 mm^3. […] Survival of the tumor bearing mice was recorded and depicted by Kaplan-Meier analysis.

PC9 cells = test: MTT cell survival assay; format: cell-based, human; settings: 3 days treatment with increasing doses
Protocol: as §1, §2

H1975 cells = test: MTT cell survival assay; format: cell-based, human; settings: for ability to inhibit survival of cultured NSCLC cells: 4 days, versus other anti-EGFR, anti-HER2, anti-HER3 mAbs (FIG. 3)
Protocol: as §1, §2

PC9ER cells = test: MTT cell survival assay; format: cell-based, human; settings: for ability to inhibit survival of cultured NSCLC cells: 4 days, versus other anti-EGFR, anti-HER2, anti-HER3 mAbs (FIG. 3)
Protocol: as §1, §2

[4] = tested on: EGFR, HER2, HER3, AKT, ERK and their phosphorylated forms in PC9ER cells; test: Western blot time course of receptors and downstream pathways; format: cell-based, human; settings: 10 μg/ml; for ERK activation / re-activation (phosphorylation): late peak at about 24 hours
Protocol: (§3) Western blot analysis—Cells were grown under specified conditions or treated as indicated. Following the cells were washed twice with cold PBS and scraped into lysis buffer [50 mM Hepes (pH 7.5), 10% glycerol, 150 mM NaCl, 1% Triton X-100, 1 mM EDTA, 1 mM EGTA, 10 mM NaF, 0.1 mM Na3VO4, and a complete protease inhibitor cocktail]. Thereafter, lysates were centrifuged at 14,000 g for 15 minutes at 4° C. The supernatant was used for subsequent procedures. Western blot analyses were conducted following protein separation using gel electrophoresis and transfer to nitrocellulose membranes. Immunoblotting was performed according to the antibody manufacturers' recommendation. Blocking was done using 5% milk in PBST (0.5% Tween20 Sigma Cat#P9416). Antibody binding to membrane blots was detected using horseradish peroxidase—secondary antibodies (Jackson ImmunoResearch Laboratories), followed by treatment with ECL Western blotting detection reagents (GE Healthcare).

[5] = tested on: EGFR, HER2, HER3 and phosphorylated forms in PC9ER and H1975 cells; test: Western blot after long-term exposure to anti-EGFR mAb; format: cell-based, human; settings: resistant cell lines
Protocol: as §3

[6] = 3 days treatment with increasing doses, EGFR T790M

C=CC(=O)Nc1cc(Nc2nccc(-c3cn(C)c4ccccc34)n2)c(OC)cc1N(C)CCN(C)C [AZD-9291]
tumor relapse in post-treatment phase (PC9ER NSCLC cells; erlotinib 1st line to approximately 550 mm^3, 2nd line treatment to day 50, then no treatment, AZD9291 1 or 5 mg/kg/d, 3×mAbs 0.2 mg/mouse/injection): relapse of tumors; also recorded: rapid and dramatic relapse | survival / sensitivity (MTT) (PC9ER-AZDR cells [1]): lost sensitivity | survival / sensitivity (MTT) (PC9ER-AZDR cells [1]; listed as AZD9291): clearly demonstrated resistance | EGFR phosphorylation [2]: remained phosphorylated | EGFR phosphorylation ([2]; listed as AZD9291): failed to inhibit EGFR phosphorylation | body weight gain (H1975 NSCLC cells; AZD9291 5 mg/kg/day, compared with the triple mAb combination): slightly inhibited body weight gain | growth of the erlotinib-resistant human NSCLC tumor (H1975 NSCLC cells; AZD9291 5 mg/kg/day, triple combination of antibodies (CTX+TRZ+33)): comparably inhibited growth | tumor growth / tumor volume (PC9ER-AZDR cells [3]): Neither erlotinib nor AZD9291 (at both low and high doses) were able to significantly inhibit tumor growth

C#Cc1cccc(Nc2ncnc3cc(OCCOC)c(OCCOC)cc23)c1 [erlotinib]
tumor growth, 1st line phase (PC9ER NSCLC cells; erlotinib 50 mg/kg/d versus control group): no differences were noted | cell survival (PC9 cells): strongly inhibited | cell survival (H1975 cells; [6]): exhibited resistance | cell survival (PC9ER cells; [6]): exhibited resistance | tumor growth / tumor volume (PC9ER-AZDR cells [3]): Neither erlotinib nor AZD9291 (at both low and high doses) were able to significantly inhibit tumor growth

B1: mAb 33: anti-HER3 monoclonal antibody, clone NG33; VH SEQ ID NO: 5, Vkappa SEQ ID NO: 6 (antibody, V domains shown)
VH: DVQLQESGPGLVKPSQSLSLTCSVTGYSITSGFYWSWIRQFPGNKLEWMGYIAYDGTSNYNPSLKNRISITRDTSKNQFFLKLKSVTNEDTPTYYCARGGGYYGQLLDYWGQGTSVTVSS
VL: DARMTQSPSSLSASLGDRVTISCRASQDISNYLNWYQQKPDGTVKVLIYNTAKLHSGVPSRFSGSGSGTDYSLTISNLEQEDFATYFCQQGKTLPWTFGGGTKLELK
modifications: anti-HER3 33 VH amino acid sequence; anti-HER3 33 Vkappa amino acid sequence
ability to inhibit survival of cultured NSCLC cells (H1975 cells; 10 μg/ml): superior ability to inhibit survival | ability to inhibit survival of cultured NSCLC cells (PC9ER cells; 10 μg/ml): superior ability to inhibit survival | tumor growth (H1975 NSCLC cells): neither anti-HER2, anti-HER3 nor combined anti-HER2 and anti-HER3 treatment repressed tumor growth

B2: mAb 565: anti-EGFR monoclonal antibody, clone 565, CNCM I-4262; VH SEQ ID NO: 1, Vkappa SEQ ID NO: 2 (antibody, V domains shown)
VH: QVQLQQSGAELVKPGASVKLSCKASGYTFTNYWIHWVKQRPGQGLEWIGEIGPINGRSNYIEKFKTKATLTVDKSSSTTYLHLSSLTSEDSAVYYCAREDDYDGKAMDYWGQGTSVTVSS
VL: DIVMTQSHKFXSTSVGDRVSITCKASQNVGTAVAWYQQKPGQSPKLLIYWTSTRHTGVPDRFTGTGSGTEFTLTINNVQSEDLADYFCQQYSGYSFGGGTKLELKR
modifications: not fully specified; anti-EGFR 565 VH amino acid sequence; EGFR 565 kappa amino acid sequence; (11)..(11) Xaa can be any naturally occurring amino acid
inhibition of survival (H1975 cells; 10 μg/ml, 4 days of incubation): approximately 40% | ability to inhibit survival of cultured NSCLC cells (H1975 cells; 10 μg/ml): superior ability to inhibit survival | inhibition of survival (PC9ER cells; 10 μg/ml, 4 days of incubation): approximately 40% | ability to inhibit survival of cultured NSCLC cells (PC9ER cells; 10 μg/ml): superior ability to inhibit survival | EGFR protein level (degradation) [4]: almost disappeared | ERK activation / re-activation (phosphorylation) [4]: hyper-phosphorylation | phosphorylation of EGFR ([4]; listed as anti-EGFR mAb): initially reduced; also recorded: strikingly strong re-phosphorylation | HER2 and HER3 and their active tyrosine phosphorylated forms [5]: up-regulation | expression levels of EGFR [5]: gradual decrease | tumor growth (H1975 NSCLC cells): partly inhibited tumor growth

B3: mAb 12: anti-HER2 monoclonal antibody, clone N12, CNCM I-4112; VH SEQ ID NO: 3, Vkappa SEQ ID NO: 4 (antibody, V domains shown)
VH: QVQLQQSGAELVRPGDSVNLSCKASGYTFTSYWMYWIKQRPDQGLESIGNIHPNNGGTNYSGKFKNKASLTVDKSSTTAYMQLSSLTSEDSAVYFCARLTGIGMDYWGQGTSVIVSS
VL: B2 VL with X11M, K101R, L104I, R106L
modifications: of anti-HER2 N12 VH amino acid sequence; anti-HER2 N12 Vkappa amino acid sequence
ability to inhibit survival of cultured NSCLC cells (H1975 cells; 10 μg/ml): superior ability to inhibit survival | ability to inhibit survival of cultured NSCLC cells (PC9ER cells; 10 μg/ml): superior ability to inhibit survival | ERK activation / re-activation (phosphorylation) [4]: induced ERK hyper-phosphorylation | tumor growth (H1975 NSCLC cells): neither anti-HER2, anti-HER3 nor combined anti-HER2 and anti-HER3 treatment repressed tumor growth
